These sequences were tested against malate synthase (MS, GlcB) (Mycobacterium tuberculosis) (UniProt P9WK17) (assay: SPR).
malate synthase (MS, GlcB) (Mycobacterium tuberculosis), sequence (P9WK17 whole entry): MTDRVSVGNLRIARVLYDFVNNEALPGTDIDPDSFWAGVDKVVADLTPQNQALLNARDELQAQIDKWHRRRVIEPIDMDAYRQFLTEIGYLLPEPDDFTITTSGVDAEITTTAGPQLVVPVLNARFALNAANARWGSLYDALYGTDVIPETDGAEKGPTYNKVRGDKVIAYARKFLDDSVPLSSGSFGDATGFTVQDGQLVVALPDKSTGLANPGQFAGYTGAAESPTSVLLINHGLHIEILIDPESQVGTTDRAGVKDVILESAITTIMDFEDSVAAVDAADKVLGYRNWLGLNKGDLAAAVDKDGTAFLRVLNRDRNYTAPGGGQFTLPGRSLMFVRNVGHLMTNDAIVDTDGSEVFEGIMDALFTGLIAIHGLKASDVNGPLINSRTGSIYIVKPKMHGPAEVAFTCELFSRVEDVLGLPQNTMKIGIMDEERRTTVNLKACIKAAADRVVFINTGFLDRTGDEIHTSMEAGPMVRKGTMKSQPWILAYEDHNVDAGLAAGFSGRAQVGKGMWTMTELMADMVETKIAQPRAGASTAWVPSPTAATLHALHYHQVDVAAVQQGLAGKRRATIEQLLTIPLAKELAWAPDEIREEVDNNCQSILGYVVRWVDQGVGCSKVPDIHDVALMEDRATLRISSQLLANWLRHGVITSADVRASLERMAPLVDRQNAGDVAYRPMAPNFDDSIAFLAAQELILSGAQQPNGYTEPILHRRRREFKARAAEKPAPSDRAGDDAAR
For “GCAGAGAGAGAGAAAGTGAGAAGGGCGGGGGGGAGAGGGTGGGG [MS5]”, the Kd was 2700 nM. Sequence “GGACCAGGTGAGTGGATGCGGGTGCGGGTGGGGGTGAGGGGGGG [MS4]” has a Kd of 9.9 nM. “GGGTTGTAAGAGGGAGCTGGGAGGGGTCGGGGGGGGGGGTGGC [MS20]” gave a Kd of 910 nM. “GGTGGGATGGGGGGGGGAGGGTAGGGTGTGCAAGTAGAGGGTC [MS6]” showed a Kd of 0.28 nM.
